Here are results for 125 sequences from the supplement of paper PMC9112550, “Optimization of the antimicrobial peptide Bac7 by deep mutational scanning” (BMC Biology, 2022).

The test system of the data set is Escherichia coli TOP10. Kind of data set: shrunken log2 fold change of peptide-encoding DNA abundance (4.5 h post-induction vs induction); higher = less antimicrobial activity (less host growth inhibition). Particulars: time post-induction: 4.5 h; library: site-saturation at positions 5, 18, 19, 20.
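Further: peptides expressed intracellularly from a pBAD plasmid library in pooled LB shake-flask culture, induced with 0.3% L-arabinose, DNA abundance read by NGS, three biological replicates, DESeq2 with apeglm shrinkage.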

Take RRIRRRPPRLPRPRPRPAFIPRP: the “shrunken log2 fold change” value stood at 0.115.
The result for RRIRWRPPRLPRPRPRPFLKPRP reads -0.4; that for RRIRYRPPRLPRPRPRPDPPPRP, 0.0918.
For the sequence RRIRHRPPRLPRPRPRPSQEPRP, the “shrunken log2 fold change” value was -0.27.
For the sequence RRIRQRPPRLPRPRPRPIPPPRP, the “shrunken log2 fold change” value worked out at 0.0581.
The result for RRIRSRPPRLPRPRPRPADWPRP reads 0.405.
The result for RRIRPRPPRLPRPRPRPTISPRP reads -0.218; that for RRIRWRPPRLPRPRPRPVPRPRP, 0.549; that for RRIRKRPPRLPRPRPRPMIYPRP, -0.718.
Consider RRIRARPPRLPRPRPRPLINPRP, for which the “shrunken log2 fold change” value came to 0.0648.
The result for RRIRRRPPRLPRPRPRPAEFPRP reads 0.0257; that for RRIRQRPPRLPRPRPRPLVKPRP, -0.166.
The result for RRIRWRPPRLPRPRPRPGGEPRP reads 0.107; that for RRIRWRPPRLPRPRPRPDWHPRP, -0.0337; that for RRIRMRPPRLPRPRPRPVLFPRP, 0.289.
The result for RRIRERPPRLPRPRPRPWAIPRP reads -0.0826; that for RRIRFRPPRLPRPRPRPRANPRP, 0.509; that for RRIRARPPRLPRPRPRPFMAPRP, -0.163.
Consider RRIRCRPPRLPRPRPRPNDRPRP, for which the “shrunken log2 fold change” value is -0.299.
As for RRIRIRPPRLPRPRPRPLRMPRP, the “shrunken log2 fold change” value is -0.04.
The result for RRIRSRPPRLPRPRPRPMYAPRP reads -0.29; that for RRIRYRPPRLPRPRPRPLYHPRP, -1.11.
As to RRIRSRPPRLPRPRPRPWYNPRP, the “shrunken log2 fold change” value is -0.502.
The result for RRIRLRPPRLPRPRPRPWAIPRP reads -0.0706; that for RRIRGRPPRLPRPRPRPQVTPRP, 0.0826.
As for RRIRDRPPRLPRPRPRPMVNPRP, the “shrunken log2 fold change” value is -0.0813.
The result for RRIRLRPPRLPRPRPRPPRLPRP reads 0.46.
As to RRIRERPPRLPRPRPRPVNPPRP, the “shrunken log2 fold change” value was -0.0961.
The result for RRIRDRPPRLPRPRPRPSEIPRP reads -0.167.
On to RRIRARPPRLPRPRPRPQQYPRP, for which the “shrunken log2 fold change” value was -0.203.
As to RRIRHRPPRLPRPRPRPFSYPRP, the “shrunken log2 fold change” value was -0.28.
For the sequence RRIRFRPPRLPRPRPRPHIDPRP, the “shrunken log2 fold change” value is -0.335.
On to RRIRWRPPRLPRPRPRPGVKPRP, for which the “shrunken log2 fold change” value was determined as 0.505.
Regarding RRIRQRPPRLPRPRPRPNQMPRP, the “shrunken log2 fold change” value is -0.0557.
With RRIRKRPPRLPRPRPRPNYGPRP, the “shrunken log2 fold change” value is -0.226.
The result for RRIRFRPPRLPRPRPRPYNNPRP reads -1.15.
As for RRIRYRPPRLPRPRPRPQYNPRP, the “shrunken log2 fold change” value is -1.49.
Take RRIRDRPPRLPRPRPRPNLTPRP: the “shrunken log2 fold change” value was -0.325.
Turning to RRIRERPPRLPRPRPRPNCVPRP, the “shrunken log2 fold change” value was -0.0533.
The result for RRIRQRPPRLPRPRPRPLPHPRP reads 0.137; that for RRIRHRPPRLPRPRPRPRQKPRP, -0.01; that for RRIRFRPPRLPRPRPRPDVYPRP, -0.32.
The result for RRIRERPPRLPRPRPRPDLVPRP reads -0.022.
Take RRIRSRPPRLPRPRPRPNEFPRP: the “shrunken log2 fold change” value amounted to 0.00763.
For the sequence RRIRGRPPRLPRPRPRPETFPRP, the “shrunken log2 fold change” value was determined as 1.08.
The result for RRIRDRPPRLPRPRPRPWSTPRP reads -0.274.
Turning to RRIRYRPPRLPRPRPRPDLLPRP, the “shrunken log2 fold change” value is -0.0601.
Turning to RRIRLRPPRLPRPRPRPYCTPRP, the “shrunken log2 fold change” value was 1.26.
The result for RRIRCRPPRLPRPRPRPFICPRP reads -0.57; that for RRIRARPPRLPRPRPRPRGKPRP, 0.376.
The result for RRIRCRPPRLPRPRPRPSVPPRP reads -0.784.
For RRIRYRPPRLPRPRPRPKVIPRP, the “shrunken log2 fold change” value was -0.102.
The result for RRIRHRPPRLPRPRPRPCIQPRP reads -0.00018; that for RRIRDRPPRLPRPRPRPVIHPRP, 0.0491.
The result for RRIRCRPPRLPRPRPRPCAFPRP reads -0.311; that for RRIRARPPRLPRPRPRPDHSPRP, 0.0675; that for RRIRVRPPRLPRPRPRPCYPPRP, -0.327.
Take RRIRKRPPRLPRPRPRPFIWPRP: the “shrunken log2 fold change” value is -0.0554.
Turning to RRIRLRPPRLPRPRPRPTCYPRP, the “shrunken log2 fold change” value is -0.371.
RRIRHRPPRLPRPRPRPHIYPRP: the “shrunken log2 fold change” value is -0.169.
The result for RRIRMRPPRLPRPRPRPFFDPRP reads 0.232.
Take RRIRLRPPRLPRPRPRPLARPRP: the “shrunken log2 fold change” value is 0.615.
The result for RRIRARPPRLPRPRPRPWKEPRP reads 0.00952; that for RRIRFRPPRLPRPRPRPLMNPRP, -0.607; that for RRIRLRPPRLPRPRPRPRCVPRP, 0.0662.
The result for RRIRFRPPRLPRPRPRPDWTPRP reads 0.039; that for RRIRWRPPRLPRPRPRPYPNPRP, -0.58; that for RRIRLRPPRLPRPRPRPIWYPRP, -0.645.
The result for RRIRERPPRLPRPRPRPHTEPRP reads -0.239.
RRIRGRPPRLPRPRPRPVGWPRP: the “shrunken log2 fold change” value was 1.26.
The result for RRIRQRPPRLPRPRPRPAFEPRP reads -0.0876; that for RRIRMRPPRLPRPRPRPFLEPRP, -0.088; that for RRIRQRPPRLPRPRPRPQTDPRP, 0.00346.
The result for RRIRPRPPRLPRPRPRPGWFPRP reads 0.238; that for RRIRARPPRLPRPRPRPISAPRP, 0.294.
With RRIRTRPPRLPRPRPRPFPDPRP, the “shrunken log2 fold change” value was -0.123.
The result for RRIRQRPPRLPRPRPRPGWVPRP reads -0.124; that for RRIRPRPPRLPRPRPRPKGPPRP, 0.641; that for RRIRCRPPRLPRPRPRPRDVPRP, 0.227.
In the case of RRIRMRPPRLPRPRPRPNQFPRP, the “shrunken log2 fold change” value was -0.0124.
The result for RRIRMRPPRLPRPRPRPMLMPRP reads 0.0323.
Turning to RRIRERPPRLPRPRPRPMATPRP, the “shrunken log2 fold change” value came out at 0.0537.
RRIRFRPPRLPRPRPRPFAHPRP: the “shrunken log2 fold change” value was -0.0794.
On to RRIRGRPPRLPRPRPRPTDGPRP, for which the “shrunken log2 fold change” value was 0.361.
The result for RRIRRRPPRLPRPRPRPIQRPRP reads 0.168; that for RRIRDRPPRLPRPRPRPVRQPRP, 0.000541.
RRIRYRPPRLPRPRPRPVTHPRP: the “shrunken log2 fold change” value stood at 0.00542.
The result for RRIRIRPPRLPRPRPRPESWPRP reads 0.249.
The result for RRIRIRPPRLPRPRPRPQCHPRP reads -0.594; that for RRIRRRPPRLPRPRPRPNKYPRP, 0.861.
The result for RRIRNRPPRLPRPRPRPNYPPRP reads -0.0819; that for RRIRFRPPRLPRPRPRPFVAPRP, -0.0081; that for RRIRHRPPRLPRPRPRPYGCPRP, -0.118.
RRIRARPPRLPRPRPRPDKTPRP: the “shrunken log2 fold change” value is -0.00345.
The result for RRIRFRPPRLPRPRPRPYFHPRP reads -1.66; that for RRIRVRPPRLPRPRPRPFCLPRP, -0.357.
The result for RRIRSRPPRLPRPRPRPSHEPRP reads 0.0867.
The result for RRIRNRPPRLPRPRPRPGTKPRP reads 0.0372; that for RRIRARPPRLPRPRPRPMTDPRP, -0.414.
Turning to RRIRFRPPRLPRPRPRPPFIPRP, the “shrunken log2 fold change” value is -0.236.
As for RRIRDRPPRLPRPRPRPQNIPRP, the “shrunken log2 fold change” value was -0.126.
Turning to RRIRNRPPRLPRPRPRPWICPRP, the “shrunken log2 fold change” value was -0.192.
The result for RRIRWRPPRLPRPRPRPEWRPRP reads 0.439; that for RRIRDRPPRLPRPRPRPEEHPRP, 0.937; that for RRIRGRPPRLPRPRPRPMWTPRP, 0.311.
The result for RRIRQRPPRLPRPRPRPMCRPRP reads -0.0374.
The result for RRIRKRPPRLPRPRPRPNKNPRP reads 0.125; that for RRIRSRPPRLPRPRPRPVSIPRP, -0.319.
Turning to RRIRDRPPRLPRPRPRPSCTPRP, the “shrunken log2 fold change” value is -0.244.
Take RRIRFRPPRLPRPRPRPRHLPRP: the “shrunken log2 fold change” value was -0.0297.
Take RRIRHRPPRLPRPRPRPTSVPRP: the “shrunken log2 fold change” value is -0.0283.
RRIRYRPPRLPRPRPRPACQPRP: the “shrunken log2 fold change” value is -0.142.
The result for RRIRRRPPRLPRPRPRPGFLPRP reads -0.0551; that for RRIRARPPRLPRPRPRPDEEPRP, 0.901.
The result for RRIRYRPPRLPRPRPRPHINPRP reads -0.806.
The result for RRIRERPPRLPRPRPRPKIWPRP reads 0.0407; that for RRIRVRPPRLPRPRPRPAKVPRP, 0.203; that for RRIRNRPPRLPRPRPRPVNFPRP, -0.157.
Regarding RRIRTRPPRLPRPRPRPPPPPRP, the “shrunken log2 fold change” value was 0.862.
As for RRIRWRPPRLPRPRPRPWFQPRP, the “shrunken log2 fold change” value is -0.125.
RRIRCRPPRLPRPRPRPCNAPRP: the “shrunken log2 fold change” value is -0.448.
The result for RRIRIRPPRLPRPRPRPTQYPRP reads -0.616; that for RRIRMRPPRLPRPRPRPRYLPRP, -0.0395; that for RRIRQRPPRLPRPRPRPSRVPRP, -0.00679.
Regarding RRIRRRPPRLPRPRPRPYWNPRP, the “shrunken log2 fold change” value is -0.368.
